Tests used:
human PD-1 [1] = target: T1, human PD-1 (human, UniProt Q15116 25-170); assay: ELISA, PD-1 coated
T1 construct: extracellular domain; also called PD-1 antigen

human PD-1 [2] = target: T1, human PD-1; assay: blocking ELISA: PD-1 coated, biotin-labelled PD-L1
human PD-1 [3] = target: T1, human PD-1; assay: ELISA; EC50 ratio to the control monoclonal antibody
human PD-1 [4] = target: T1, human PD-1; assay: blocking ELISA; IC50 ratio to the control monoclonal antibody

T1 sequence (Q15116 25-170): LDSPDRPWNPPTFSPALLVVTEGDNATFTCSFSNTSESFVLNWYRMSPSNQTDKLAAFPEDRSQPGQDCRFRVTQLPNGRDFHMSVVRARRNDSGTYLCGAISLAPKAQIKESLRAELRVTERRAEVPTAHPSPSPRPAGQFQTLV

| Binder | EC50 (human PD-1 [1]) [nM] | IC50 (human PD-1 [2]) [nM] | EC50 fold change (human PD-1 [3]) | IC50 fold change (human PD-1 [4]) |
| --- | --- | --- | --- | --- |
| LB309 (bispecific antibody) chain 1: not shown chain 2: QVQLVQSGAEVKKPGSSVKVSCKASGYAFSNYLIEWVKQAPGQGLEWIGLINPGSGGTNYNEKFKGKATITADKSTSTAYMELSSLRSEDTAVYYCARVYYGNSFAYWGQGTLVTVSS chain 3: DIVMTQSPDSLAVSLGERATISCKSSQSLLNSGNQKNYLTWYQQKPGQPPKLLIYWASTRESGVPDRFSGSGSGTDFTLTISSLQAEDVAVYYCQNDYFYPFTFGQGTKLEIK chain 4: not shown | 0.16 | 0.8 | 1.33 | 2.42 |
| LB313 (bispecific antibody) chain 1: not shown chain 2: EIVLTQSPATLSLSPGERATLSCRASKGVSTSGYSYLHWYQQKPGQAPRLLIYLASYLESGVPARFSGSGSGTDFTLTISSLEPEDFAVYYCQHSRDLPLTFGGGTKVEIKRTVAAPSVFIFPPSDEQLKSGTASVVCLLNNFYPREAKVQWKVDNALQSGNSQESVTEQDSKDSTYSLSSTLTLSKADYEKHKVYACEVTHQGLSSPVTKSFNRGEC chain 3: QVQLVQSGAEVKKPGSSVKVSCKASGYAFSNYLIEWVKQAPGQGLEWIGLINPGSGGTNYNEKFKGKATITADKSTSTAYMELSSLRSEDTAVYYCARVYYGNSFAYWGQGTLVTVSS chain 4: DIVMTQSPDSLAVSLGERATISCKSSQSLLNSGNQKNYLTWYQQKPGQPPKLLIYWASTRESGVPDRFSGSGSGTDFTLTISSLQAEDVAVYYCQNDYFYPFTFGQGTKLEIK | 0.048 | – | 3.4 | – |
| LB308 (bispecific antibody) chain 1: not shown chain 2: QVQLVQSGAEVKKPGSSVKVSCKASGYAFSNYLIEWVKQAPGQGLEWIGLINPGSGGTNYNEKFKGKATITADKSTSTAYMELSSLRSEDTAVYYCARVYYGNSFAYWGQGTLVTVSS chain 3: DIVMTQSPDSLAVSLGERATISCKSSQSLLNSGNQKNYLTWYQQKPGQPPKLLIYWASTRESGVPDRFSGSGSGTDFTLTISSLQAEDVAVYYCQNDYFYPFTFGQGTKLEIK chain 4: EIVLTQSPATLSLSPGERATLSCRASKGVSTSGYSYLHWYQQKPGQAPRLLIYLASYLESGVPARFSGSGSGTDFTLTISSLEPEDFAVYYCQHSRDLPLTFGGGTKVEIKRTVAAPSVFIFPPSDEQLKSGTASVVCLLNNFYPREAKVQWKVDNALQSGNSQESVTEQDSKDSTYSLSSTLTLSKADYEKHKVYACEVTHQGLSSPVTKSFNRGEC | 0.25 | 1.93 | 0.93 | 1.8 |
| LB314 (bispecific antibody) chain 1: DIVMTQSPDSLAVSLGERATISCKSSQSLLNSGNQKNYLTWYQQKPGQPPKLLIYWASTRESGVPDRFSGSGSGTDFTLTISSLQAEDVAVYYCQNDYFYPFTFGQGTKLEIK chain 2: QVQLVQSGAEVKKPGSSVKVSCKASGYAFSNYLIEWVKQAPGQGLEWIGLINPGSGGTNYNEKFKGKATITADKSTSTAYMELSSLRSEDTAVYYCARVYYGNSFAYWGQGTLVTVSS chain 3: not shown chain 4: QVQLVQSGAEVKKPGSSVKVSCKASGYAFSNYLIEWVKQAPGQGLEWIGLINPGSGGTNYNEKFKGKATITADKSTSTAYMELSSLRSEDTAVYYCARVYYGNSFAYWGQGTLVTVSS chain 5: DIVMTQSPDSLAVSLGERATISCKSSQSLLNSGNQKNYLTWYQQKPGQPPKLLIYWASTRESGVPDRFSGSGSGTDFTLTISSLQAEDVAVYYCQNDYFYPFTFGQGTKLEIK chain 6: not shown | 0.083 | – | 5.2 | – |
| LB312 (bispecific antibody) chain 1: not shown chain 2: DIVMTQSPDSLAVSLGERATISCKSSQSLLNSGNQKNYLTWYQQKPGQPPKLLIYWASTRESGVPDRFSGSGSGTDFTLTISSLQAEDVAVYYCQNDYFYPFTFGQGTKLEIK chain 3: QVQLVQSGAEVKKPGSSVKVSCKASGYAFSNYLIEWVKQAPGQGLEWIGLINPGSGGTNYNEKFKGKATITADKSTSTAYMELSSLRSEDTAVYYCARVYYGNSFAYWGQGTLVTVSS chain 4: EIVLTQSPATLSLSPGERATLSCRASKGVSTSGYSYLHWYQQKPGQAPRLLIYLASYLESGVPARFSGSGSGTDFTLTISSLEPEDFAVYYCQHSRDLPLTFGGGTKVEIKRTVAAPSVFIFPPSDEQLKSGTASVVCLLNNFYPREAKVQWKVDNALQSGNSQESVTEQDSKDSTYSLSSTLTLSKADYEKHKVYACEVTHQGLSSPVTKSFNRGEC | 0.042 | – | 3 | – |
